From PMC7864571

Target: T1, NXF1(RRM-LRR) (UniProt Q9UBU9 96-362)
T1 sequence: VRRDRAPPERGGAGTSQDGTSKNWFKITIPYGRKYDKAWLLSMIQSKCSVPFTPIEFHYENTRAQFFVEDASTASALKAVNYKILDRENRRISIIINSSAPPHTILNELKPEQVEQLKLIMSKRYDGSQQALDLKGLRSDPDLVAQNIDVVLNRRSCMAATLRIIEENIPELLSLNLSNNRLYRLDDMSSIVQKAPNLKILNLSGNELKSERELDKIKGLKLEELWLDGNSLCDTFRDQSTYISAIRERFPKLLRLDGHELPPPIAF
Experiment: EMSA; in presence of GST-Nsp1(1-129); RNA binding of NXF1 not impaired; 10 mM Tris pH 8.0, 100 mM NaCl, 0.5 mM TCEP, 8% glycerol, 0.5 U/ul SUPERase-In, room temperature 10 min; 5% native PAGE; 100 nM RNA
Settings: protein: recombinant; tags: GST tag removed by TEV; label: 5' Alexa Fluor 488; single strand

B1: poly(U) 15-mer RNA (ssRNA)
RNA: UUUUUUUUUUUUUUU
B1: binds.
